Article PMC11099193, “Extracellular modulation of TREK-2 activity with nanobodies provides insight into the mechanisms of K2P channel regulation” (Nature Communications, 2024)
Where two headings read alike, the source gives them in different places.

T1: human TREK-2 protein (residues Gly67 to Glu340) (human)
T1 chain: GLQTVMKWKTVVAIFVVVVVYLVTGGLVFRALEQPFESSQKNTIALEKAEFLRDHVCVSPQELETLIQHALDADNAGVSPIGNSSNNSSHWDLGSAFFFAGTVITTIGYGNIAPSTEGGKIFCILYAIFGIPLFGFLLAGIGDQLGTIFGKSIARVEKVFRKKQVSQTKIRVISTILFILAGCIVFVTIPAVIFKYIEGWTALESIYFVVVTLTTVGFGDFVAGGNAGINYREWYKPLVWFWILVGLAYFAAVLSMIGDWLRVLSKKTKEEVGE

T2: biotinylated TREK-2 (Homo sapiens, biotin (site not stated))
T2 construct: the buffer (OGNG/CHS) is that of the cryo-EM sample
T2 chain: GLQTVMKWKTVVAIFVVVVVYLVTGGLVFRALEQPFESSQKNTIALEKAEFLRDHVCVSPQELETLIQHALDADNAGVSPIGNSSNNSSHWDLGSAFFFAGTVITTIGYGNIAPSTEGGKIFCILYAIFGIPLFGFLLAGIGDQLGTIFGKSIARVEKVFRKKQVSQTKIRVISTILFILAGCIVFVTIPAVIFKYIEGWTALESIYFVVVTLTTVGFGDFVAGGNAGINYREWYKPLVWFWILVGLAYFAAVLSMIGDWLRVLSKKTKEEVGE


Key:
[1] = target: T1, human TREK-2 protein (residues Gly67 to …)
[2] = target: T3, TREK-1 tagged with mCherry (Homo sapiens, UniProt O95069); assay: immunostaining of cells or tissue; HEK293T cells transfected with K2P-mCherry, fixed with 4% formaldehyde, incubated with nanobody-mVenus for 2 h at 37 °C, washed, imaged for overlap of the two fluorescent signals
T3 construct: human TREK-1 K2P channel, stop codon removed and mCherry fused in frame to the C-terminus by a (GS)2 linker; source: HEK293T, transfected (pFAW vector), fixed cells; not shown: mCherry, C-terminal, kept
T3 sequence (O95069 whole entry, the tested form may be a part): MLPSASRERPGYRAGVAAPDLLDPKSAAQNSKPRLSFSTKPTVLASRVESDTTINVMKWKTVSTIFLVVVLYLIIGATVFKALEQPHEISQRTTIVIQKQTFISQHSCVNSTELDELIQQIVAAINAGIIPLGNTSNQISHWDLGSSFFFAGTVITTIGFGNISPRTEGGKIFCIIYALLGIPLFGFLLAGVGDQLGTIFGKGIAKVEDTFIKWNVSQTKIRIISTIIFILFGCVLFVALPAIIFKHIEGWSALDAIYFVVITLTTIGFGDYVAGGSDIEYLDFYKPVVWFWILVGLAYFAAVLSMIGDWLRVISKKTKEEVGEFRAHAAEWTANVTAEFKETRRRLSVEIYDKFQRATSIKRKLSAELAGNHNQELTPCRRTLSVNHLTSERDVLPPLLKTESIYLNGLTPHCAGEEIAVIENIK

TREK-2-mCherry fusion = target: T4, TREK-2-mCherry fusion (Homo sapiens, UniProt P57789-4, strain); assay: as above
T4 construct: The legend says HEK-293, the methods HEK293T; also called TREK-2 tagged with the mCherry fluorescent protein; K2P-mCherry-pFAW; source: HEK293T, transfected (pFAW vector), fixed cells; not shown: mCherry, C-terminal, kept
T4 sequence (P57789 whole entry, looked up, stated change not applied, the tested form may be a part): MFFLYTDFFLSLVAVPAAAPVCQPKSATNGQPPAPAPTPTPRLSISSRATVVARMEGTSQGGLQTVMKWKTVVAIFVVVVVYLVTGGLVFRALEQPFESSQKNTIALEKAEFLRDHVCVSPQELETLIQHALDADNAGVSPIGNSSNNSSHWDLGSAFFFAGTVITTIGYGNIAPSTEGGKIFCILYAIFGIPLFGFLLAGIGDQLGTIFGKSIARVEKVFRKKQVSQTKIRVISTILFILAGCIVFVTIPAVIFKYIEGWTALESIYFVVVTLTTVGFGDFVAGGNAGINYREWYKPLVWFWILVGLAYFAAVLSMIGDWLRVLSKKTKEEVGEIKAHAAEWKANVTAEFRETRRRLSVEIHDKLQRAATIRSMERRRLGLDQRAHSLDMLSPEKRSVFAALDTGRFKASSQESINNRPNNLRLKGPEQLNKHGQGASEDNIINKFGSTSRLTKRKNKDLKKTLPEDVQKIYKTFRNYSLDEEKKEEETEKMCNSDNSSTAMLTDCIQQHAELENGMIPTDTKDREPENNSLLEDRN

[3] = target: T1, human TREK-2 protein (residues Gly67 to …); assay: SEC; each nanobody mixed with purified TREK-2 in a 2:1 molar ratio, Sepax SRT SEC-300 column in 200 mM KCl, 20 mM HEPES pH 7.5; shift of the 280 nm TREK-2 peak against TREK-2 alone; settings: both partners purified
biotinylated TREK-2 = target: T2, biotinylated TREK-2; assay: BLI; Octet Red; biotinylated TREK-2 (50 nM) loaded on streptavidin biosensors in 200 mM KCl, 20 mM HEPES pH 7.5, 0.12% OGNG, 0.012% CHS; nanobody dilutions 2 µM-7.8 nM (Nb61) and 1000 nM-3.9 nM (Nb6158); 600 s association, 600 s dissociation; settings: both partners purified

Row | binding result [1] | Binder | also measured
1 | binds | CA10769 (VHH) VHH: QVQLVESGGGLVQAGDSLRLSCAASGRTSSSDVMGWFRQAPGKGREFVAETSWRGGKTAYADSVKGRFAISRDNAKNTVYLQMNNLKPEDTAVYYCAVLHADSSTYAYWGQGTRVTVSS | –
2 | binds | CA10771 (VHH) VHH: QVQLVESGGGLVQAGGSLRLSCAASGRTASLYAMDWFRQAPGKEREFVARLILSTFGTNYADSVKGRFTFSRDNAKNTVYLQMNNLKPEDTGVYFCAAHSLTSTNWDQGTQVTVSS | –
3 | binds | CA10772 (VHH) VHH: QVQLVESGGGLVQPGGSLRLSCAASGFTFSAYAMRWHRQAPGKGLEWVSSIDHSGAWPNYADSVKGRFTISRDNAKNTLYLQMDSLKPEDTAVYYCSKAGFRGQGTQVTVSS | –
4 | binds | CA10765 (VHH) VHH: QVQLVESGGGLVQAGGSLRLSCAASGFTFDDYAIGWFRQAPGKEREGVSCISSSDGSTYYADSVKGRFTISSDNAKNTVYLQMNSLKPEDTAVYYCAADPYLYCSDYGDSGTLSYYGVDYWGKGTQVTVSS | –
5 | binds | CA10759 (VHH) VHH: QVQLVESGGGLVQAGGSLRLSCAASGLTFSRYNMGWFRQAPGKEREFVAAINRYGGTMYATDSVKGRFTISRDNVKSTVDLQMNRLKPEDTAVYYCAADQQYMSRLEADFGSWGQGTQVTVSS | –
6 | binds | CA10760 (VHH) VHH: QVQLVESGGGLVQAGGSLRLSCAASGLTFSAYNMGWFRQAPGKEREFVAAINRYGGTLYTTDSVKGRFTISRDNVKSTVDLQMNRLEPEDTAVYYCAADQQYMSRLEADFGSWGQGTQVTVSS | –
7 | binds | CA10773 (VHH) VHH: QVQLVESGGGLVQPGGSLRLSCAASGFTFSSYPMSWARQAPGKGLEWVSAINRGGSSTNYADSVKGRFTISRDNAKNTLYLQMDSLKPEDTAVYYCFKGGTRGQGTQVTVSS | –
8 | binds | CA10774 (VHH) VHH: QVQLVESGGGLVQPGGTLRLSCAASGFTFSSKPMSWARQAPGKGLEWVSAISRDGSSTNYADSVKGRFTISRNNAWNTLYLQMDNLKPEDTAVYYCFMGGTRGQGTQVTVSS | –
9 | binds | CA10763 (VHH) VHH: QVQLVESGGGLVQAGGSLRLSCAASGLTFSGYPMGWFRQAPGKEREFVATISRSGNNMHYADSVKGRFTISRDNAKNTVSLQMNSLKPEDTAVYYCAADSTTLRRGVASVEYWGQGTQVTVSS | –
10 | binds | CA10755 (VHH) VHH: QVQLVESGGGLVQAGGSLRLSCAASRSIVTINAMSWHRQAPGKQRELVASITKRGRTNIADSVKGRFAISWDRNTVYLQMNSLKPEDTAVYYCAALTDIPMNTYWGQGTQVTVSS | –
11 | binds | CA10778 (VHH) VHH: QVQLVESGGGLVQAGGSLRLSCAASRGIFTITAMSWHRQAPGKQRELVASITRRGRTNIADSVKDRFAISWDKNTVYLQMNSLKPEETAVYYCAALTDAPMNTYWGQGTQVTVSS | –
12 | binds | CA10756 (VHH) VHH: QVQLVESGGGLVQAGGSLRLSCAASRSFVTINAISWHRQAPGKQRELVASITKRGRTNIADSVKGRFAISWDKNTVYLQMNSLKPEDTANYYCAALTDIPVNTYWGQGTQVTVSS | –

The remaining lines, values behind:

Row | Binder | binding result [1] | also measured
13 | CA10780 (VHH) VHH: QVQLVESGGGLVQAGGSLRLSCAASGRTFSSYAMGWFRQAPGKEREFVAAISWSGGSTYYADSVKGRFTVSRDNAKNTVYLQMNSLKPEDTAVYYCAADSISTAQAMRVNERDYGMDYWGKGTQVTVSS | binds | –
14 | CA10764 (VHH) VHH: QVQLVESGGGLAQAGGSLRLSCAASGRTFSNYAMGWFRQAPGKEREFVATISSSGGTIRYADSVKGRFTISRDNAKNTVALQMNVLKPEDTAVYYCAQSKYGRAWSDRYEYDRWGQGTQVTVSS | binds | –
15 | CA10754 (VHH) VHH: QVQLVESGGGLVQAGGSLRLSCAASGRTFSTYAMSWFRQAPGKEREFVARIRWSTTRTSSTYYADSVKGRFTISGDNAKNTVYLQMDSLKPEDTAVYYCAAVINPYSSAYEYWGQGTQVTVSS | binds | –
16 | Nb-Binder-58 fused to the mVenus fluorescent protein (VHH, as the VHH of m9 (Nb58); mVenus joined by a (GS)2 linker; also called Nb58 fused to mVenus; source: cloned into the pFAW vector; not shown: mVenus, C-terminal, kept) VHH: QVQLVESGGGLVQAGGSLRLSCAASGRAGSGYAMGWFRQAPGKEREIVGAISWSGDNTYYADSVRGRVTISRDYAQNTVYLQMNSLKPEDTAVYYCAADGRGNLRRGTAGRYVEYWGQGTQVTVSS | – | binding result [2]: no binding; binding result (TREK-2-mCherry fusion): binds
17 | Nb-Binder-58 (VHH, also called CA10758; Nb58; source: E. coli WK6, periplasm, purified (Ni-NTA)) VHH: QVQLVESGGGLVQAGGSLRLSCAASGRAGSGYAMGWFRQAPGKEREIVGAISWSGDNTYYADSVRGRVTISRDYAQNTVYLQMNSLKPEDTAVYYCAADGRGNLRRGTAGRYVEYWGQGTQVTVSS | – | binding result [3]: binds
18 | CA10766 (VHH) VHH: QVQLVESGGGLVQAGGSLRLSCAASGRSFSTYGIGWFRQAPGRERDLVASISWSGGGTYYADSVKGRSTISRDNAKNMVDLQMNSLKPEDTAVYYCAARRLGGVGRIVQYDYWGQGTQVTVSS | binds | –
19 | CA10779 (VHH) VHH: QVQLVESGGGAVQAGGSLRLSCASSDHSFTRYTIAWFRQAPGKEREFVAALTWNGGITNYADSVKGRFTISRENGKNTAYLQMDALESEDTAVYYCAAVFGPASLTREDMYEYWGQGTQVTVSS | binds | –
20 | CA10770 (VHH) VHH: QVQLVESGGGLVQAGGSLRLSCAASGRSFSSYRMAWFRQAPGLEREFVAAISRSGSNTDYADSVKGRFTISRDNAKNTVYLQMNSLKPDDTAVYFCAANTSPLLGSVATGQEYYIYWAQGTQVTVSS | binds | –
21 | CA10752 (VHH) VHH: QVQLVESGGGLVQAGGSLRLSCAASGRTSSTYAMSWFRQPPGKEREFVARIRWSGSNTYYADSVKGRFTISGDNAKNTVYLQMNSLKAEDTAVYYCAAVIDPYSSAYEYWGQGTQVTVSS | binds | –
22 | CA10753 (VHH) VHH: QVQLVESGGGLVQAGGSLRLSCAASGRTFSTYAMSWFRQAPGKEREFVARIRWSGTSTAYADSVKGRFFISGDNAKNTVYLQMNSLKPEDTAVYYCAAVINPYSSAYEYWGQGTQVTVSS | binds | –
23 | CA10777 (VHH) VHH: QVQLVESGGGLVQPGGSLRLSCAASGLIARLIDWGWYRQAPGKQRELVAAITAGGRTNYTDSVKGRFTISRDDPKNTVYLQMSALKPEDTAVYYCCVDFRSYAGKQYHYCGQGTQVTVSS | binds | –
24 | Nb-Binder-57 fused to mVenus (VHH, mVenus joined by a (GS)2 linker; also called CA10757; Nb57; source: cloned into the pFAW vector; not shown: mVenus, C-terminal, kept) VHH: QVQLVESGGGLVQAGDSLRLSCASSGRALSNVAMGWFRQAPGKEREIVAAISWSGDNTYYADSGRGRFTISRDNAKNTVYLQMNNLRPEDTAVYYCAADGRGNLRRGTAGRYVDYWGQGTQVTVSS | – | binding result [2]: no binding; binding result (TREK-2-mCherry fusion): binds
25 | Nb-Inhibitor-61 (VHH, also called CA10761; Nb61; source: E. coli WK6, periplasm, purified (Ni-NTA)) VHH: QVQLVESGGGLVQAGDSLRVSCAGSGFTFTSYGMGWFRQAPGKEREFVASINWNSNTAYADSVRGRFTISRDNAESMMYLQMNSLKPEDTAVYYCAATRAYSKPRVDSRHYDYWGQGTQVTVSS | – | Kd (biotinylated TREK-2): 1.1 µM
